# Data: publication PMC4059916, “VARP Is Recruited on to Endosomes by Direct Interaction with Retromer, Where Together They Function in Export to the Cell Surface” (Developmental Cell, 2014)
# Changes are numbered by the printed parent chain. Names may count otherwise.
# T1: SeMet-Rab32 1-225 (Q85L/V100M/Q153M/V158M/I192M) (UniProt Q13637 1-225, Q85L | V100M | Q153M | V158M | I192M, selenomethionine (SeMet protein))
# T1 construct: Rab32 residues 1-225; also called SeMet-Rab32Q85L; source: E. coli B834, M9 media (seleno-methionine), purified
# T1 sequence (looked up): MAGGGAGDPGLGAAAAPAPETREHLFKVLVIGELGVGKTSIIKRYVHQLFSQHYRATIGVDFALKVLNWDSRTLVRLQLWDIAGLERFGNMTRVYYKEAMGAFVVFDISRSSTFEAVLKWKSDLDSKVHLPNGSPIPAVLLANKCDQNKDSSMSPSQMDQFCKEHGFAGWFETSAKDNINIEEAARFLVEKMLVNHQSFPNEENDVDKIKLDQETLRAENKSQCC
# B1: Rab32 1-225 (Q85L), GTP hydrolysis-defective mutant, GST removed (enzyme, UniProt Q13637 1-225, looked up)
# chain: T1 sequence (looked up) with M100V, M153Q, M158V, M192I
# notes: Rab32, residues 1-225; limits 1-225 are printed for the crystallised construct; also called Rab32(Q85L); Rab32Q85L
# B2: VARP451-640His6 (first ankyrin repeat domain, ANKRD1), wild type (domain or fragment, human, UniProt Q96NW4 451-640, looked up)
# chain: PSVVTPFSRDDRGHTPLHVAAVCGQASLIDLLVSKGAMVNATDYHGATPLHLACQKGYQSVTLLLLHYKASAEVQDNNGNTPLHLACTYGHEDCVKALVYYDVESCRLDIGNEKGDTPLHIAARWGYQGVIETLLQNGASTEIQNRLKETPLKCALNSKILSVMEAYHLSFERRQKSSEAPVQSPQRSVD
# notes: VARP (VPS9-domain ankyrin repeat protein); also called VARP ANKRD1; VARP-ANKR domain 1; source: E. coli Rosetta 2 pLysS, purified (GSH-sepharose, PreScission cleavage, Ni-NTA agarose, Superdex 75); not shown: His6, C-terminal, kept
# B3: VARP451-640His6 K546D (domain or fragment, human, UniProt Q96NW4 451-640, looked up)
# chain: B2 chain with K96D
# notes: also called VARP(K546D); source: E. coli Rosetta 2 pLysS, purified; not shown: His6, C-terminal, kept
# B4: VARP451-640His6 L513D (domain or fragment, human, UniProt Q96NW4 451-640, looked up)
# chain: B2 chain with L63D
# notes: source: E. coli Rosetta 2 pLysS, purified; not shown: His6, C-terminal, kept
# B5: VARP451-640His6 Y550A (domain or fragment, human, UniProt Q96NW4 451-640, looked up)
# chain: B2 chain with Y100A
# notes: also called VARP(Y550A); source: E. coli Rosetta 2 pLysS, purified; not shown: His6, C-terminal, kept
# B6: VARP fragment with the second Cys-rich motif, 4C2 (C711S/C715S/C717S/C720S), as used in ITC (domain or fragment)
# chain: TEEDLEDAEDTVSAADPEFSHPLSQSPKSAPAQKRLAKVPASGLGVNVTSQDGSS
# notes: VARP; source: E. coli, purified
# What was measured:
# Conditions in all cases: both partners purified
# [1] = biological target: T2, VARP fragment, residues 397-650 (human, UniProt Q96NW4 397-650); test: ITC; Nano ITC; VARP constructs at 60 μM in the cell at 4°C, Rab constructs at 300 μM titrated, 24 injections of 2 μl; 50 mM HEPES pH 7.4, 200 mM NaCl, 5 mM MgCl2, 1 mM TCEP
# T2 construct: VARP (VPS9-domain ankyrin repeat protein; 1,050 residues), residues 397-650, contains ANKRD1; source: E. coli Rosetta 2 pLysS, purified (GSH-sepharose, PreScission cleavage, Superdex 75)
# T2 sequence (Q96NW4 397-650): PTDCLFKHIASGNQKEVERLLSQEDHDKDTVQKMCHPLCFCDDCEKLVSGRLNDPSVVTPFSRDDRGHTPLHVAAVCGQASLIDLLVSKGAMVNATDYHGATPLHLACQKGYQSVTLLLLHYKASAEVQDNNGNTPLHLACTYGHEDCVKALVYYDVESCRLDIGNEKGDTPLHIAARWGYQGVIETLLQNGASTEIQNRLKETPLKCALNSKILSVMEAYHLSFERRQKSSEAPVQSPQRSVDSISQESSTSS
# [2] = biological target: T1, SeMet-Rab32 1-225 …; test: crystal structure; sitting drop vapor diffusion at 18°C, PEG 3350, 200 mM sodium citrate pH 8.0; molecular replacement
# [3] = biological target: B1; test: ITC; Nano ITC; VARP constructs at 60 μM in the cell at 4°C, Rab constructs at 300 μM titrated, 24 injections of 2 μl; 50 mM HEPES pH 7.4, 200 mM NaCl, 5 mM MgCl2, 1 mM TCEP
# [4] = biological target: VPS29, recombinant, as used in ITC (UniProt Q9UBQ0 1-182); test: ITC; recombinant VARP Cys-rich motif fragments and VPS29; who was titrated is not told
binder,measurement,setting,value
B1,Kd,[1],7 µM
B2,binding result,[2],binds
same,Kd,[3],2.5 µM
B3,Kd,[3],~8 µM
B4,Kd,[3],> 300 µM
B5,Kd,[3],~22 µM
B6,fold decrease in binding against the wild-type fragment,[4],~20 fold
